# Patent publication US20240238446
# Assays:
# [1] = target: human C3b, P01024
# [2] = target: mouse C3b/iC3b deposited from mouse serum on LPS, P01027
# mouse C3b/iC3b deposited from mouse serum on LPS, P01027, sequence (P01027 25-1663): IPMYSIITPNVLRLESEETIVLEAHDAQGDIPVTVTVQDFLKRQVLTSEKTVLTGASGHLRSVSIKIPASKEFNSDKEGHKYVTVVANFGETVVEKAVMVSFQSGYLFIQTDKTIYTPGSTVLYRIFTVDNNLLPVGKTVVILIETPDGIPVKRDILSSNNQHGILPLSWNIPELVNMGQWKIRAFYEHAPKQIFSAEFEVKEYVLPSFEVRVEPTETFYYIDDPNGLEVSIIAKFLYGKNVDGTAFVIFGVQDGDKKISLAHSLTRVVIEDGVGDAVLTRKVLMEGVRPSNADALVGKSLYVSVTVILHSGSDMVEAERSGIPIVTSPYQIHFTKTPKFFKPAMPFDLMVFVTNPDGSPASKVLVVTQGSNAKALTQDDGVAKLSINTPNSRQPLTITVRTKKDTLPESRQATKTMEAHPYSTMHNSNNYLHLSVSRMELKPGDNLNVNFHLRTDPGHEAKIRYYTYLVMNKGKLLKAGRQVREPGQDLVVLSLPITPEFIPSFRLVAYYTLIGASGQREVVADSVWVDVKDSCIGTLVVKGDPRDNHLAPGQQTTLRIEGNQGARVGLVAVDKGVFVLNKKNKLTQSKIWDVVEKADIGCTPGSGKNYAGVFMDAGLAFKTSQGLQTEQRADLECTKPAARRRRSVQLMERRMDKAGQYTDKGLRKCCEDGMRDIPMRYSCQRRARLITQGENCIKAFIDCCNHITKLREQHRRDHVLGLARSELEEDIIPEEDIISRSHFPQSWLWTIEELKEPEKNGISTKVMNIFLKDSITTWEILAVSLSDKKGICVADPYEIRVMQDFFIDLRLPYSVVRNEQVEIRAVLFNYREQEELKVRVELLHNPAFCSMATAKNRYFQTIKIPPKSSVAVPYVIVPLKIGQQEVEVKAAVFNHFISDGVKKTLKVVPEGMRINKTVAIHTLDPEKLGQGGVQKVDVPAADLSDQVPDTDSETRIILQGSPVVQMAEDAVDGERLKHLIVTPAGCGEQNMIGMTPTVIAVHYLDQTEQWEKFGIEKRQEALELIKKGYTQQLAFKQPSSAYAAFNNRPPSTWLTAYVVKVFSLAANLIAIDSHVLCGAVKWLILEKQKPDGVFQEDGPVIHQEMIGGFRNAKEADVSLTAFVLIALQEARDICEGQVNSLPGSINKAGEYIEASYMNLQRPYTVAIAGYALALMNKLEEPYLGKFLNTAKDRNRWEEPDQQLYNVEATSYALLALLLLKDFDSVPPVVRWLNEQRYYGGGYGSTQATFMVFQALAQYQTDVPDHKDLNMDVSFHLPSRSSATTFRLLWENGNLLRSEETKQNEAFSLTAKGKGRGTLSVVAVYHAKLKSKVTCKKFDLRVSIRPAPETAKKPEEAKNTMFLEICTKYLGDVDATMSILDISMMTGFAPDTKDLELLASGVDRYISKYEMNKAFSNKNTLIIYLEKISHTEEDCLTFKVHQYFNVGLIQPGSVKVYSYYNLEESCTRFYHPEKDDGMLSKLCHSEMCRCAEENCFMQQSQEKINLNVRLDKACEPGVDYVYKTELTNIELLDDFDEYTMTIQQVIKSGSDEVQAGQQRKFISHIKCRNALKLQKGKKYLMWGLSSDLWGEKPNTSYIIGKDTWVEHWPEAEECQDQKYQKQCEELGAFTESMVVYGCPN
# human C3b, P01024, sequence (P01024 whole entry, looked up): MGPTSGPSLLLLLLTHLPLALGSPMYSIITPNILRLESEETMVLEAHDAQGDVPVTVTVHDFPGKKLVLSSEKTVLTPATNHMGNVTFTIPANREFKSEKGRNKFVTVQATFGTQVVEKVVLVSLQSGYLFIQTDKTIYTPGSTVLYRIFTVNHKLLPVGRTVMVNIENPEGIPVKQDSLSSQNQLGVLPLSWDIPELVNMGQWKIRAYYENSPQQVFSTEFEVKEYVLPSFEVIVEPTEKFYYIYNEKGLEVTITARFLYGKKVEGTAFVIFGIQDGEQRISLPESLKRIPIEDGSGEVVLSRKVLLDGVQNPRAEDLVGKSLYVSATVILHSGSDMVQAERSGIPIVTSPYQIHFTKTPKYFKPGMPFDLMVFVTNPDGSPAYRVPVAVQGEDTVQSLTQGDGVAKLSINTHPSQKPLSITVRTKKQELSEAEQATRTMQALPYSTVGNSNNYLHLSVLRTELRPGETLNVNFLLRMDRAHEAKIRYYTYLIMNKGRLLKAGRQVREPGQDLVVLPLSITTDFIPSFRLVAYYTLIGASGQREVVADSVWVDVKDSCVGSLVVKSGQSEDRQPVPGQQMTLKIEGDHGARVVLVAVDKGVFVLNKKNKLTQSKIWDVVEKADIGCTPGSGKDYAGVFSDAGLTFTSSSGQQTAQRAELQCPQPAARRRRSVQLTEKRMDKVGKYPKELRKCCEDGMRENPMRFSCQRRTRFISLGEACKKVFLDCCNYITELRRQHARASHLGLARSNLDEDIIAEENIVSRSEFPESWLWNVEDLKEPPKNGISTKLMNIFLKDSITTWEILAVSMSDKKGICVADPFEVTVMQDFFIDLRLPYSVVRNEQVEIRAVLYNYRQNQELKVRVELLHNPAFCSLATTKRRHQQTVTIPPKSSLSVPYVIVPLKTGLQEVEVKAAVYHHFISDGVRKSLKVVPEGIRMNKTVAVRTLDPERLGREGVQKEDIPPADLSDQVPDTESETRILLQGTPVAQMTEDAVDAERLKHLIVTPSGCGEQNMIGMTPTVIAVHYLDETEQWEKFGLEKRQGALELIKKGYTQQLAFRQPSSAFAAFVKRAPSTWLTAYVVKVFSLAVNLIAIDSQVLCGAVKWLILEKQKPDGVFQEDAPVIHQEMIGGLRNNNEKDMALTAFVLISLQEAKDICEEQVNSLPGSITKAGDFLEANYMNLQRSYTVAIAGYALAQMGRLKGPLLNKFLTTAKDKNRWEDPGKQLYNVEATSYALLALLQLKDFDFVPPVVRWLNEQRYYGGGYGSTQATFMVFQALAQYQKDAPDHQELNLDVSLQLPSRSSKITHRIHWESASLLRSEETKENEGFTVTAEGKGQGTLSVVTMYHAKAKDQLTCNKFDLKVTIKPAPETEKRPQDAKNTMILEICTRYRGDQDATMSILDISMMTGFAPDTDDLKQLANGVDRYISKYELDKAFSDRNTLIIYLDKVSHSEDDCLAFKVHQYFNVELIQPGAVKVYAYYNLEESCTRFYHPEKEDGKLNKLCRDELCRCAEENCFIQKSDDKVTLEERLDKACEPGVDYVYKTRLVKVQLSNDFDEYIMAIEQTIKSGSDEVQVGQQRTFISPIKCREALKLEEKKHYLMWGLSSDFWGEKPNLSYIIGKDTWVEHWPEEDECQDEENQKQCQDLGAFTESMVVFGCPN
protein,measurement,setting,value
mouse Factor I in mouse serum (protein) RSPSASDLPQEELVDQKCLLQKYTHRSCNKVFCQPWQRCIEGTCICKLPYQCPRAGTPVCAMNGRSYPTYCHQKSFECLHPEIKFSHNGTCAAEGKFNVSLIYGRTKTEGLVQVKLVDQDERMFICKNSWSMAEANVACVDLGFPLGVRDIQGSFNISGNLHINDTECLHVHCRGVETSLAECAFTKRRTELSNGLAGVVCYKQDADFPTSLSFQCVNGKHIPQEKACNGVNDCGDQSDELCCKGCRGNASLCKSGVCIPDQYKCNGEVDCITGEDESRCEEDRQQNIPKGLARSAQGEAEIETEETEMLTPGMDNERKRIKSLLPKLSCGVKRNTHTRRKRVIGGKPANVGDYPWQVAIKDGQRITCGGIYIGGCWILTAAHCVRPSRAHSYQVWTALLDWLKPNSQLGIQTVKRVIVHEKYNGATFQNDIALIEMKMHTGKKECELPNSVPACVPWSPYLFQPNDRCIISGWGRGKDNQKVYSLRWGEVDLIGNCSQFYPDRYYEKEMQCAGTRDGSIDACKGDSGGPLVCEDINNVTYVWGIVSWGENCGKPEFPGVYTRVANYFDWISYHVGRSLVSQHNV,"in vitro C3b and iC3b cleavage assay (western blot with clone 9, generation of C3dg; human Factor H as cofactor, 30 minutes)",[1],more efficiently cleaved to C3dg within the incubation period in the AAV_FI medium and AAV_FI high group
same,"C3b/iC3b deposition on LPS-coated plate, reduction, serum of AAV high FI group",[2],by 50% in the AAV % high FI group
same,"C3b/iC3b deposition on LPS-coated plate, reduction, serum of AAV_low FI group",[2],reduced by 11% in the AAV_low FI
same,"C3b/iC3b deposition on LPS-coated plate, reduction, serum of AAV_medium FI group",[2],by 38% in the AAV_medium FI
